*1 amine or outer side, *2 acyl side, *3 side chain or, on linkers, in order; H or OH if unused. Where no end group is shown, it is not given here. Side-chain parts run from the residue outwards. The star is where a group is joined. C18 diacid = O=C(O)CCCCCCCCCCCCCCCCC(=O)*; C16 diacid = O=C(O)CCCCCCCCCCCCCCC(=O)*; γGlu = O=C(O)[C@H](CCC(=O)[*:2])N[*:1]; AEEA = NCCOCCOCC(=O)O
B1: N^ε24-[(4S)-4-carboxy-4-[[(4S)-4-carboxy-4-[[2-[2-[2-[[2-[2-[2-[[(4S)-4-carboxy-4-(17-carboxyheptadecanoylamino)butanoyl]amino]ethoxy]ethoxy]acetyl]amino]ethoxy … (peptide)
peptide: HSQGTFTSDYSKYLDTRRAQDFVK([γGlu-γGlu-AEEA-AEEA-γGlu-C18 diacid])WLLST-NH2
modifications: N-terminus assumed
SMILES: CC(C)C[C@H](NC(=O)[C@H](Cc1c[nH]c2ccccc12)NC(=O)[C@H](CCCCNC(=O)CC[C@H](NC(=O)CC[C@H](NC(=O)COCCOCCNC(=O)COCCOCCNC(=O)CC[C@H](NC(=O)CCCCCCCCCCCCCCCCC(=O)O)C(=O)O)C(=O)O)C(=O)O)NC(=O)[C@@H](NC(=O)[C@H](Cc1ccccc1)NC(=O)[C@H](CC(=O)O)NC(=O)[C@H](CCC(N)=O)NC(=O)[C@H](C)NC(=O)[C@H](CCCNC(=N)N)NC(=O)[C@H](CCCNC(=N)N)NC(=O)[C@@H](NC(=O)[C@H](CC(=O)O)NC(=O)[C@H](CC(C)C)NC(=O)[C@H](Cc1ccc(O)cc1)NC(=O)[C@H](CCCCN)NC(=O)[C@H](CO)NC(=O)[C@H](Cc1ccc(O)cc1)NC(=O)[C@H](CC(=O)O)NC(=O)[C@H](CO)NC(=O)[C@@H](NC(=O)[C@H](Cc1ccccc1)NC(=O)[C@@H](NC(=O)CNC(=O)[C@H](CCC(N)=O)NC(=O)[C@H](CO)NC(=O)[C@@H](N)Cc1c[nH]cn1)[C@@H](C)O)[C@@H](C)O)[C@@H](C)O)C(C)C)C(=O)N[C@@H](CC(C)C)C(=O)N[C@@H](CO)C(=O)N[C@H](C(N)=O)[C@@H](C)O

Target: glucagon receptor (human, UniProt P47871 26-477)
Assay: cell-based or functional assay

Sequence of glucagon receptor (P47871 26-477): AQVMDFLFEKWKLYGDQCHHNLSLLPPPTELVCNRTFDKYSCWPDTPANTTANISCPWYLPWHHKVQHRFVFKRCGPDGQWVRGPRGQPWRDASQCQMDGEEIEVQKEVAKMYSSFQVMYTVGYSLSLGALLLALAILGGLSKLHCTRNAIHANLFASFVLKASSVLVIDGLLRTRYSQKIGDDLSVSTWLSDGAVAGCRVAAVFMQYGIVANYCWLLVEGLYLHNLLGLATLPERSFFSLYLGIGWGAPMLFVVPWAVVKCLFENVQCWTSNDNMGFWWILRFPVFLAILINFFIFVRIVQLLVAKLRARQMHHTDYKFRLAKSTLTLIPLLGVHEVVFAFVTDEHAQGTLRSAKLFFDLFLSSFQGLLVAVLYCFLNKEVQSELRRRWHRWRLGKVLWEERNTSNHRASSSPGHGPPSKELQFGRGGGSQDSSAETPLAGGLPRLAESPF

Assay (I) Glucagon [EC50] [nM]	Binder
0.355	HSQGTFTSDYSRYLDRRRAQDFVK([γGlu-γGlu-AEEA-AEEA-γGlu-C18 diacid])WLLST
0.049	HSQGTFTSDYSKYLDARRAQDFVK([γGlu-γGlu-AEEA-AEEA-γGlu-C18 diacid])WLLST
0.039	B1
0.92	HSQGTFTSDYSKYLESRRAQDFVK([γGlu-AEEA-AEEA-γGlu-C18 diacid])WLLNV
0.12	HSQGTFTSDYSKYLDTRRAQEFVK([γGlu-AEEA-AEEA-γGlu-C18 diacid])WLLNV
1.12	HSQGTFTSDYSKYLESRRAQDFVK([γGlu-AEEA-AEEA-γGlu-C18 diacid])WLLNI
0.255	HSQGTFTSDYSRYLDLRRAQDFVK([γGlu-γGlu-AEEA-AEEA-γGlu-C18 diacid])WLLST
0.067	HSQGTFTSDYSRYLDLRRAQDFVK([γGlu-γGlu-AEEA-AEEA-γGlu-C16 diacid])WLLST
0.297	HSQGTFTSDYSRYLDTRRAQDFVK([γGlu-γGlu-AEEA-AEEA-γGlu-C18 diacid])WLLST
0.075	HSQGTFTSDYSKYLDTRRAQDFVK([γGlu-γGlu-AEEA-AEEA-γGlu-C18 diacid])WLLST
1.32	HSQGTFTSDYSRYLDLRRAQDFVK([γGlu-γGlu-γGlu-C18 diacid])WLLST
0.183	HSQGTFTSDYSKYLDTRRAQEFVK([γGlu-AEEA-AEEA-γGlu-C18 diacid])WLLNL
1.9	HSQGTFTSDYSKYLESRRAQDFVK([γGlu-AEEA-AEEA-γGlu-C18 diacid])WLLNL
0.072	HSQGTFTSDYSKYLDTRRAQEFVK([γGlu-γGlu-AEEA-AEEA-γGlu-C18 diacid])WLLST
0.139	HSQGTFTSDVSKYLDTRRAQEFVK([γGlu-γGlu-AEEA-AEEA-γGlu-C18 diacid])WLLST
0.129	HSHGTFTSDYSKYLDSRRAQDFVK([γGlu-γGlu-AEEA-AEEA-γGlu-C18 diacid])WLLST
0.243	HSQGTFTSDYSRYLDLRRAQDFVK([γGlu-γGlu-γGlu-AEEA-AEEA-γGlu-C18 diacid])WLLST
1.04	HSQGTFTSDYSRYLDIRRAQDFVK([γGlu-γGlu-AEEA-AEEA-γGlu-C18 diacid])WLLST
0.754	HSQGTFTSDYSRYLDLRRAQDFVK([γGlu-γGlu-AEEA-AEEA-γGlu-C18 diacid])WLLTT

From patent US20130079278A1 (Novo Nordisk, published 2013)
